# The DeepSol protein solubility set
# Test: soluble on expression in E. coli; label from the status in PepcDB or PDB records
row,Sequence,soluble on expression in E. coli
1,MIGKKSFQTNVYRMSKFDTYIFNNLYINDYKMFWIDSGIAKLIDKNCLVSYEINSSSIILLKKNSIQRFSLTSLSDENINVSVITISDSFIRSLKSYILGDLMIRNLYSENKDLLLWNCEHNDIAVLSEVVNGFREINYSDEFLKVFFSGFFSKVEKKYNSIFITDDLDAMEKISCLVKSDITRNWRWADICGELRTNRMILKKELESRGVKFRELINSIRISYSISLMKTGEFKIKQIAYQSGFASVSYFSTVFKSTMNVAPSEYLFMLTGVAEK,soluble
2,MGSDKIHHHHHHMNVAILLAAGKGERMSENVPKQFLEIEGRMLFEYPLSTFLKSEAIDGVVIVTRREWFEVVEKRVFHEKVLGIVEGGDTRSQSVRSALEFLEKFSPSYVLVHDSARPFLRKKHVSEVLRRARETGAATLALKNSDALVRVENDRIEYIPRKGVYRILTPQAFSYEILKKAHENGGEWADDTEPVQKLGVKIALVEGDPLCFKVTFKEDLELARIIAREWERIP,soluble
3,MASDRKRQIIEAAAQSFAAFGYKATTMEQIAKLANVGKGTIYTFFKSKEELLDEIVSGLIMEIKAEAELAMDSSLPFSENVHRALYRILEFRQRHQLTAKLLQEVRNIGTVAVQEVLAKLDRAMVEFIRQKIDAAVEKGEIRPCNSEITAFLMLKTYIALIVDWEKDHEPLTKEQIAELFTLYFLQGLSR,not soluble
4,MGGAERVMATLANEFVKRGHQVRLVTLKKAVSAYELDKRVEFIGGGADINSGNFLIKRIQMISAVIKGTLFYRRQLREYKPDIILSFLTYTNLLSVINNRISRVKYPVVVSERCDPRKRSKLLIKLCNIVYPLADCIVCQSKVIQDYFLNKNPKSVTKVIPNPVNEECINKEEIIKRRKLIVAVGRLSNQKNYDLLIDAFSDIANEYSEYRLEIYGEGPERERLQKKINRLGLNDRIQLMGTKTNVMKHIADAQLFVMSSNFEGFPNALAEAMASGLPVISTNFPSGVAKELIIDGENGYVVDINNREQMADAMRKILGDPLTITKMSKNNVLLREKLNVKTVANMWENLFNDILEKRTKNEKN,not soluble
5,MGSDKIHHHHHHANSTNTIVSTSNMASTAYTRKSATGWTYNLGGTATNMTFGKKTHYLKNYPNTTWHATKKRYIIKKNGVKYLYYYVTNGRKTAAGWIWHGYLQKKSYAHTATTTSSTGTGTYDSILKAAKTQLGKPYAYGGNGPSAFDCSGFTKYVFNQAIGQTLPRTAQAQYDSYTHVSAANAKAGDLIFFGTSASNITHCGIYLGNHKMIDAQLNGVITEATNVSWWHTVGYSRPATLS,not soluble
6,MGSDKIHHHHHHMNFLDGHLFPENQQPLIITAAPYAPGWLPSDFPEDIPVTMEEQIQKAVDCYNAGATVLHLHVRELDGKGSKRLSKFNELVAGVRKAVPEMIIQVGGSISFAPENEGQAAKWLSDDTRHMLADLEPTPDQVTVTVNTSQMNVTDHAEDADFRGTSRENPAIFNAYKEMTVPAQPGWVEEHVRRLTAKGIQSAFQCYNTNSFESVERLMRRGFYKGPLVMNWVAIGGGMDTPNVYSLGNFMRGVPDGAVVTVESNVRNVLPVNMMGIAMGLHVRCGTEDVLWNQKRTAKMSTVKQIEQLVRISHEFGREIATAKEAREISKIGVFYDTVEESLQANGFAPNRNGGTQGYLRKTR,not soluble
7,MNGYVYLVGAGPGDEGLITKKAIECLKRADIVLYDRLLNPFFLSYTKQTCELMYCGKMPKNHIMRQEMINAHLLQFAQEGKIVVRLKGGDPSIFGRVGEEAETLAAANIPYEIVPGITSSTAASSYAGIPLTHRNYSNSVTLLTGHAKGSLTDHGKYNSSHNSDTIAYYMGIKNLPTICKNLRQAGKKEDTPVAVIEWGTTGKQRVVTGTLSTIVSIVKNENISNPSMTIVGDVVSLRDQIAWKEHKPLHGKKVLFTSATNKTSVMKQKLQEAGAEIYQIPTFKKEEYTLTLEQIIEIFNVNRLVFCSAESVEILMQSCSKYKKDIRSLQAELQHMNVATQEKLMQYGLLSKEAKFSSDTTVYLGRNINRIAFIQEKIGAGSYMMTHKYTIDHRFDEVHSRMLSEFLWDSIVFEGRASIDTFLAEVKRLGFLDIVTLPFSYTDVPTLRYANKVGFHNIDHQLQETLMQKDMVRQ,not soluble
8,MEAKLQVGVLGFGTVGSGVIHILEEHQEKISQVTGYHISVKKVLVRDLEKNRRYETKGFELTTNPSDVLDDPEIAVVVEVMGSITTAREYILQALKAGKHVVTANKDLIALHGDELVAVAQANNCDLFYEASVAGGIPILRTIVNSLAADKIQKVMGIVNGTTNFMLTKMTTEKK,not soluble
